From PMC8190142, “Activation of PARP2/ARTD2 by DNA damage induces conformational changes relieving enzyme autoinhibition” come the findings set out here.

The target in series [1] is T1, PARP2 FL E286R (human (Homo sapiens), UniProt Q9UGN5 1-583, E286R). The series can be described thus: fluorescence polarization; mean and SD of 3 listed KDs (12.72, 25.07, 16.53); FP buffer, salt, pH and temperature not given (as in cited ref 17); crystallization: complex purified in 20 mM Hepes pH 7.5, 300 mM NaCl, 0.5 mM TCEP; crystals. The conditions noted are these: protein: recombinant; tags: His-tag construct, TEV cleaved; label: fluorescein on internal T8 of strand 2; blunt, 20 bp. A general note: Polarisation of emitted light reports the rotation of a fluorescent probe.
T1 sequence (Q9UGN5 whole entry E286R): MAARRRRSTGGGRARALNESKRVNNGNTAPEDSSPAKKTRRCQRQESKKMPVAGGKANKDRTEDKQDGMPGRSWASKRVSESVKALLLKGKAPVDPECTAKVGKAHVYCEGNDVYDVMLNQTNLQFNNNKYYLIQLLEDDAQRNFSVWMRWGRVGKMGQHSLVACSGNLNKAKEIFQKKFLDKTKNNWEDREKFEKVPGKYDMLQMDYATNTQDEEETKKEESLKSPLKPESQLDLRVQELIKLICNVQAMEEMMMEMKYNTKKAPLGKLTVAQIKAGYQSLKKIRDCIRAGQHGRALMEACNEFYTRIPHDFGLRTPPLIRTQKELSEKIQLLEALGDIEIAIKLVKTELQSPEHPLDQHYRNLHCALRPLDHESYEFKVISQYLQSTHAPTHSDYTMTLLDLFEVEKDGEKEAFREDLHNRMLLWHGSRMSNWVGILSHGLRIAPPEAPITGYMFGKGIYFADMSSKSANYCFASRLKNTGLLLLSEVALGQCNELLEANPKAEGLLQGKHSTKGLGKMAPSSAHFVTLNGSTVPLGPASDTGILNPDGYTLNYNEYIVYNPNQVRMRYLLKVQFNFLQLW

Series [2] deals with T2, PARP2 FL E286A (human (Homo sapiens), UniProt Q9UGN5 1-583, E286A). As to the kind of experiment: fluorescence polarization; mean and SD of 3 listed KDs (22.43, 26.3, 23.94); FP buffer, salt, pH and temperature not given (as in cited ref 17); crystallization: complex purified in 20 mM Hepes pH 7.5, 300 mM NaCl, 0.5 mM TCEP; crystals. The conditions noted are these: protein: recombinant; tags: His-tag construct, TEV cleaved; label: fluorescein on internal T8 of strand 2; blunt, 20 bp.
T2 sequence (Q9UGN5 whole entry E286A): as the sequence (Q9UGN5 whole entry E286R) above, with R286A counted along it

The target of series [3] is T3, PARP2 FL N129A (human (Homo sapiens), UniProt Q9UGN5 1-583, N129A). The series can be described thus: fluorescence polarization; mean and SD of 3 listed KDs (58.73, 44.74, 72.15); FP buffer, salt, pH and temperature not given (as in cited ref 17); crystallization: complex purified in 20 mM Hepes pH 7.5, 300 mM NaCl, 0.5 mM TCEP; crystals. The settings on record: protein: recombinant; tags: His-tag construct, TEV cleaved; label: fluorescein on internal T8 of strand 2; blunt, 20 bp.
T3 sequence (Q9UGN5 whole entry N129A): as the sequence (Q9UGN5 whole entry E286R) above, with N129A, R286E counted along it

For series [4], the target named is T4, PARP2 FL wt (human (Homo sapiens), UniProt Q9UGN5 1-583). The series can be described thus: fluorescence polarization; mean and SD of 3 listed KDs (28.05, 21.44, 26.07); FP buffer, salt, pH and temperature not given (as in cited ref 17); crystallization: complex purified in 20 mM Hepes pH 7.5, 300 mM NaCl, 0.5 mM TCEP; crystals. The settings on record: protein: recombinant; tags: His-tag construct, TEV cleaved; label: fluorescein on internal T8 of strand 2; blunt, 20 bp.
T4 sequence (Q9UGN5 whole entry): as the sequence (Q9UGN5 whole entry E286R) above, with R286E counted along it

The target in series [5] is T5, PARP2 FL G338A (human (Homo sapiens), UniProt Q9UGN5 1-583, G338A). As to the kind of experiment: fluorescence polarization; mean and SD of 3 listed KDs (27.96, 29.72, 25.09); FP buffer, salt, pH and temperature not given (as in cited ref 17); crystallization: complex purified in 20 mM Hepes pH 7.5, 300 mM NaCl, 0.5 mM TCEP; crystals. The conditions noted are these: protein: recombinant; tags: His-tag construct, TEV cleaved; label: fluorescein on internal T8 of strand 2; blunt, 20 bp.
T5 sequence (Q9UGN5 whole entry G338A): as the sequence (Q9UGN5 whole entry E286R) above, with R286E, G338A counted along it

For series [6], the target named is T6, PARP2 FL R153A (human (Homo sapiens), UniProt Q9UGN5 1-583, R153A). The series can be described thus: fluorescence polarization; mean and SD of 3 listed KDs (232.6, 64.05, 161.3); FP buffer, salt, pH and temperature not given (as in cited ref 17); crystallization: complex purified in 20 mM Hepes pH 7.5, 300 mM NaCl, 0.5 mM TCEP; crystals. The conditions noted are these: protein: recombinant; tags: His-tag construct, TEV cleaved; label: fluorescein on internal T8 of strand 2; blunt, 20 bp.
T6 sequence (Q9UGN5 whole entry R153A): as the sequence (Q9UGN5 whole entry E286R) above, with R153A, R286E counted along it

The target of series [7] is T7, PARP2 FL Y201F (human (Homo sapiens), UniProt Q9UGN5 1-583, Y201F). The series can be described thus: fluorescence polarization; mean and SD of 3 listed KDs (93.24, 46.79, 151.2); FP buffer, salt, pH and temperature not given (as in cited ref 17); crystallization: complex purified in 20 mM Hepes pH 7.5, 300 mM NaCl, 0.5 mM TCEP; crystals. The conditions noted are these: protein: recombinant; tags: His-tag construct, TEV cleaved; label: fluorescein on internal T8 of strand 2; blunt, 20 bp.
T7 sequence (Q9UGN5 whole entry Y201F): as the sequence (Q9UGN5 whole entry E286R) above, with Y201F, R286E counted along it

The target in a further series is PARP2 WGR-RD-ART (human (Homo sapiens), UniProt Q9UGN5 90-583). The series can be described thus: X-ray crystallography (2.8 A); FP buffer, salt, pH and temperature not given (as in cited ref 17); crystallization: complex purified in 20 mM Hepes pH 7.5, 300 mM NaCl, 0.5 mM TCEP; crystals. The conditions noted are these: protein: recombinant; tags: His-tag construct, TEV cleaved; chain copies: 2; blunt, 16 bp; 2 duplex copies in the biological unit.
Sequence of PARP2 WGR-RD-ART (Q9UGN5 90-583): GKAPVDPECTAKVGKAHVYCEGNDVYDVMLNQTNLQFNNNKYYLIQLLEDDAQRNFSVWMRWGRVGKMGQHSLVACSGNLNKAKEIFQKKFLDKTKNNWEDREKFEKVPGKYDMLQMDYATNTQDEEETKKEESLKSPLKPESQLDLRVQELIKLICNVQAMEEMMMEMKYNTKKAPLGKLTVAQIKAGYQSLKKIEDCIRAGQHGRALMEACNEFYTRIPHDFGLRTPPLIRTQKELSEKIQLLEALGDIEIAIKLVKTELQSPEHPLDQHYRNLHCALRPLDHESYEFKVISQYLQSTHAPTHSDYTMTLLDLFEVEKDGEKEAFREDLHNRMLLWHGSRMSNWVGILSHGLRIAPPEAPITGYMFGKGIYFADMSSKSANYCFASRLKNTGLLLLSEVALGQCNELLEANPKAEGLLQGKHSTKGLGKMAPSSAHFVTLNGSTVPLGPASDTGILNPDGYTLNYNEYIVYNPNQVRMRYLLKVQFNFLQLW

The target of series [8] is T1, PARP2 FL E286R. As to the kind of experiment: fluorescence polarization; mean and SD of 3 listed KDs (18.12, 7.571, 5.497); FP buffer, salt, pH and temperature not given (as in cited ref 17); crystallization: complex purified in 20 mM Hepes pH 7.5, 300 mM NaCl, 0.5 mM TCEP; crystals. The conditions noted are these: protein: recombinant; tags: His-tag construct, TEV cleaved; label: fluorescein on internal T10; dumbbell of two hairpins (TTTT loops) with one nick.

For series [9], the target named is T5, PARP2 FL G338A. As to the kind of experiment: fluorescence polarization; mean and SD of 3 listed KDs (10.62, 9.907, 6.489); FP buffer, salt, pH and temperature not given (as in cited ref 17); crystallization: complex purified in 20 mM Hepes pH 7.5, 300 mM NaCl, 0.5 mM TCEP; crystals. The conditions noted are these: protein: recombinant; tags: His-tag construct, TEV cleaved; label: fluorescein on internal T10; dumbbell of two hairpins (TTTT loops) with one nick.

The target in series [10] is T2, PARP2 FL E286A. The series can be described thus: fluorescence polarization; mean and SD of 3 listed KDs (10.42, 7.271, 6.234); FP buffer, salt, pH and temperature not given (as in cited ref 17); crystallization: complex purified in 20 mM Hepes pH 7.5, 300 mM NaCl, 0.5 mM TCEP; crystals. The settings on record: protein: recombinant; tags: His-tag construct, TEV cleaved; label: fluorescein on internal T10; dumbbell of two hairpins (TTTT loops) with one nick.

Series [11] deals with T3, PARP2 FL N129A. The series can be described thus: fluorescence polarization; mean and SD of 3 listed KDs (14.36, 8.278, 5.785); FP buffer, salt, pH and temperature not given (as in cited ref 17); crystallization: complex purified in 20 mM Hepes pH 7.5, 300 mM NaCl, 0.5 mM TCEP; crystals. The settings on record: protein: recombinant; tags: His-tag construct, TEV cleaved; label: fluorescein on internal T10; dumbbell of two hairpins (TTTT loops) with one nick.

For series [12], the target named is T6, PARP2 FL R153A. As to the kind of experiment: fluorescence polarization; mean and SD of 3 listed KDs (20.13, 10.37, 8.203); FP buffer, salt, pH and temperature not given (as in cited ref 17); crystallization: complex purified in 20 mM Hepes pH 7.5, 300 mM NaCl, 0.5 mM TCEP; crystals. The conditions noted are these: protein: recombinant; tags: His-tag construct, TEV cleaved; label: fluorescein on internal T10; dumbbell of two hairpins (TTTT loops) with one nick.

The target in series [13] is T4, PARP2 FL wt. The series can be described thus: fluorescence polarization; mean and SD of 3 listed KDs (10.74, 7.933, 8.182); FP buffer, salt, pH and temperature not given (as in cited ref 17); crystallization: complex purified in 20 mM Hepes pH 7.5, 300 mM NaCl, 0.5 mM TCEP; crystals. The settings on record: protein: recombinant; tags: His-tag construct, TEV cleaved; label: fluorescein on internal T10; dumbbell of two hairpins (TTTT loops) with one nick.

In series [14] the target is T7, PARP2 FL Y201F. The series can be described thus: fluorescence polarization; mean and SD of 3 listed KDs (46.26, 27.47, 48.04); FP buffer, salt, pH and temperature not given (as in cited ref 17); crystallization: complex purified in 20 mM Hepes pH 7.5, 300 mM NaCl, 0.5 mM TCEP; crystals. The conditions noted are these: protein: recombinant; tags: His-tag construct, TEV cleaved; label: fluorescein on internal T10; dumbbell of two hairpins (TTTT loops) with one nick.

B1: DNA-9 dsDNA (dsDNA)
DNA 1: GACGCAACCCGGAGAACACA
DNA 2: TGTGTTCTCCGGGTTGCGTC
modifications: 5'-phosphate on strand 1
The term Kd denotes the concentration at which binding is half-saturated. Consider B1, for which the Kd was determined as 18.1 ± 6.32 nM in the series with PARP2 FL E286R [1]; 24.2 ± 1.96 nM with PARP2 FL E286A [2]; 58.5 ± 13.7 nM with PARP2 FL N129A [3]; 25.2 ± 3.39 nM in the series with PARP2 FL wt [4]; 27.6 ± 2.34 nM with PARP2 FL G338A [5]; 153 ± 84.6 nM with PARP2 FL R153A [6]. Further, the Kd with PARP2 FL Y201F [7] was determined as 97.1 ± 52.3 nM.

B2: DNA-1 (dsDNA)
DNA 1: GACGACCCGGAGCACA
DNA 2: TGTGCTCCGGGTCGTC
modifications: 5'-phosphate on strand 1
For the molecule B2, the binding result in the series with PARP2 WGR-RD-ART is recorded as “binds”.

On to GGAAGTCTTTTGACTTCCTCGAAGCTTTTGCTTCGA (structured_DNA, 5'-phosphate) [DNA-8 nicked dumbbell], for which the Kd was determined as 10.4 ± 6.77 nM with PARP2 FL E286R [8]; 9.01 ± 2.21 nM in the series with PARP2 FL G338A [9]; 7.98 ± 2.18 nM with PARP2 FL E286A [10]; 9.47 ± 4.41 nM with PARP2 FL N129A [11]; 12.9 ± 6.35 nM in the series with PARP2 FL R153A [12]; 8.95 ± 1.55 nM with PARP2 FL wt [13]. In the series with PARP2 FL Y201F [14], the Kd was 40.6 ± 11.4 nM.
